Results published in article PMC2937010.

Target: RMI1 OB2 domain (C-terminal OB fold of RMI1, residues 473-625) (human) (UniProt Q9H9A7)
Test: SEC

RMI2 (RMI core complex, wild type) (natural protein)
stoichiometry N: 1
